Measurements as given in the Human Domainome abundance scans (Beltran et al. 2025).
± gives the uncertainty stated by the source.

B1: POU domain, class 3, transcription factor 2, residues 262 to 338; numbered along this chain, P20265 (parent)
chain: EDTPTSDDLEQFAKQFKQRRIKLGFTQADVGLALGTLYGNVFSQTTICRFEALQLSFKNMCKLKPLLNKWLEEADSS

Variants of: B1
Assay: abundance fitness (aPCA) (normalised: wild type 0, dead -1); higher = more abundant; growth selection in yeast, the domain comes from the species named
Settings: Homo sapiens

Variant | abundance fitness
EDTPTSDDLEQFAKQFKQRRIKLGFTQADVGLALGTLYGNVFSQTTICRFEALQLNFKNMCKLKPLLNKWLEEADSS [S56N] | -0.145 ± 0.078
EDTPTSDDLEQFAKQFKQRRIKLGFRQADVGLALGTLYGNVFSQTTICRFEALQLSFKNMCKLKPLLNKWLEEADSS [T26R] | -0.457 ± 0.039
EDTPTSDDLEQFAKQFKQRRIKLGFTQADVGLALGTLYGNVFSQTTICRFEALQLSFKNFCKLKPLLNKWLEEADSS [M60F] | -0.373 ± 0.13
EDTPTSDDLEQFAKQFKQRRIKLGFTQADVGLALGTLYGNVFSQTTICRFEALQLSFKNMCKLHPLLNKWLEEADSS [K64H] | -0.051 ± 0.074
EDTPTSDDLEQFAKQFKQRRIKLGFTQADVGLALGTLYGNVFSQTTICRFEALQLSFKNMCKLAPLLNKWLEEADSS [K64A] | -0.06 ± 0.035
EDTPCSDDLEQFAKQFKQRRIKLGFTQADVGLALGTLYGNVFSQTTICRFEALQLSFKNMCKLKPLLNKWLEEADSS [T5C] | 0.038 ± 0.046
EDTPTSDDLPQFAKQFKQRRIKLGFTQADVGLALGTLYGNVFSQTTICRFEALQLSFKNMCKLKPLLNKWLEEADSS [E10P] | -0.189 ± 0.051
EDTPTSDDLSQFAKQFKQRRIKLGFTQADVGLALGTLYGNVFSQTTICRFEALQLSFKNMCKLKPLLNKWLEEADSS [E10S] | -0.028 ± 0.034
EDTPTSDDLEQFAKQFMQRRIKLGFTQADVGLALGTLYGNVFSQTTICRFEALQLSFKNMCKLKPLLNKWLEEADSS [K17M] | -0.171 ± 0.041
EDTPTSDDLEQFAKQFKQRRIKLGFTQADVGLALGTLYGNVFSQTTICRFEALQLSFKNMCKLKPLLNKWLEQADSS [E73Q] | 0.159 ± 0.098
EDTPTSDDLEQFAKQFKQRRIKLGFTQADVGLAHGTLYGNVFSQTTICRFEALQLSFKNMCKLKPLLNKWLEEADSS [L34H] | -1.2 ± 0.45
EDTPTSDDLEQFAKQFKQRRIKLGFTQADVGLANGTLYGNVFSQTTICRFEALQLSFKNMCKLKPLLNKWLEEADSS [L34N] | -0.796 ± 0.15
EDTPTADDLEQFAKQFKQRRIKLGFTQADVGLALGTLYGNVFSQTTICRFEALQLSFKNMCKLKPLLNKWLEEADSS [S6A] | 0.108 ± 0.028
EDTPTSDDLEQFAKQFKQRRIKLGFTQADVGLALGTLYGNVFSQETICRFEALQLSFKNMCKLKPLLNKWLEEADSS [T45E] | 0.143 ± 0.035
EDTPTSDDLEQFAKQFKQRRIKLGFTQADVGLALGTLYGNVFSQQTICRFEALQLSFKNMCKLKPLLNKWLEEADSS [T45Q] | 0.005 ± 0.039
EDTPTSDDLEQFAKQFKQRRIKLGFTQADVGLALGTLYGNVFSQITICRFEALQLSFKNMCKLKPLLNKWLEEADSS [T45I] | -0.213 ± 0.057
EDTPTSDDLEQFAKQFKQRRIKLGFTQADVGLALGTLYGNVFSQSTICRFEALQLSFKNMCKLKPLLNKWLEEADSS [T45S] | -0.013 ± 0.032
EDTPTSDDLEQFAKQFKQRRIKLGFTQADVGLALGTDYGNVFSQTTICRFEALQLSFKNMCKLKPLLNKWLEEADSS [L37D] | -0.118 ± 0.046
EDTPTSDDLEQFAKQFKQRRIKLGFTQADVGLALGTLYGNVFSQTTICRFERLQLSFKNMCKLKPLLNKWLEEADSS [A52R] | -0.181 ± 0.029
EDTPTSDDLEQFAKQFKQRRIKLGFTQADVGLALGTLYGNVFSQTTICRFEALQLSFKNMCKLKPLLNKWVEEADSS [L71V] | -0.089 ± 0.12
EDTPTSDKLEQFAKQFKQRRIKLGFTQADVGLALGTLYGNVFSQTTICRFEALQLSFKNMCKLKPLLNKWLEEADSS [D8K] | -0.074 ± 0.07
EDTPTSDDLEQFAKQFKQRRIKLGFTQADVGLALGTLYGNVFSQTTICRFEALQFSFKNMCKLKPLLNKWLEEADSS [L55F] | -0.277 ± 0.063
EDTPTSDDLEQFAKQFKQRRIKLGFTQADVGLALGTLYGNVFSQTTICRFEALQISFKNMCKLKPLLNKWLEEADSS [L55I] | -0.364 ± 0.099
EDTPTSDDLEQFAKQFKQRRIKLGFTQADVGLALGTLYGNVFSQTTICRFEALQESFKNMCKLKPLLNKWLEEADSS [L55E] | -0.298 ± 0.037

Variant | abundance fitness
EDTPTSDDLEQFAKQFKQRRIKLGFTQADVGLALGTLYGNVFSQTTICRFEALQLSFKNMCKLKPLLRKWLEEADSS [N68R] | -0.004 ± 0.074
EDTPTSDDLEQFAKQFKQRRIKLGFTQADVGLALGTLYGNVFSQTTICRFEALMLSFKNMCKLKPLLNKWLEEADSS [Q54M] | -0.294 ± 0.074
EDTPTSDDLEQFAKQFKQRRIKLGFTQADVGLALGTLYGNVFSQTTICRFEALWLSFKNMCKLKPLLNKWLEEADSS [Q54W] | -0.436 ± 0.057
EDTPTSDDNEQFAKQFKQRRIKLGFTQADVGLALGTLYGNVFSQTTICRFEALQLSFKNMCKLKPLLNKWLEEADSS [L9N] | -0.394 ± 0.084
EDTPTSDDLEQFAKQFKQRRIKLGFTQADVGLALGTLYGNVFSQTTICRFEAAQLSFKNMCKLKPLLNKWLEEADSS [L53A] | 0.016 ± 0.034
EDTPTSDDLEQFAKQFKQRRIKLGFTQADVGLALGTLYGNVFSQTTICRFEAVQLSFKNMCKLKPLLNKWLEEADSS [L53V] | -0.009 ± 0.031
EDTPTSDDLEQFAKQFKQRRIKLGFTQADVGLALGTLYGNVFSQTTICRFEALQLSFKNMCFLKPLLNKWLEEADSS [K62F] | -0.126 ± 0.086
EDTVTSDDLEQFAKQFKQRRIKLGFTQADVGLALGTLYGNVFSQTTICRFEALQLSFKNMCKLKPLLNKWLEEADSS [P4V] | 0.061 ± 0.034
EDTPTSDDLEQMAKQFKQRRIKLGFTQADVGLALGTLYGNVFSQTTICRFEALQLSFKNMCKLKPLLNKWLEEADSS [F12M] | -0.223 ± 0.14
EDTPTSDDLEQFAKQFKQRRIKLRFTQADVGLALGTLYGNVFSQTTICRFEALQLSFKNMCKLKPLLNKWLEEADSS [G24R] | -0.408 ± 0.027
EDTPTSDDLEQFAKQFKQRRIKLEFTQADVGLALGTLYGNVFSQTTICRFEALQLSFKNMCKLKPLLNKWLEEADSS [G24E] | -0.641 ± 0.058
EDTPTSDDLEQFAKQFKQRRIKLGFTQADVGLALGTLYGNVFSQTTICRFEALQLSFKNMCKLKPLWNKWLEEADSS [L67W] | -0.798 ± 0.16
EDTPTSDDLEQFAKQFKQRRIKLGFTQADVGLALGTLYGNVFSQTTICRFEALQLSFKNMCKLKPLLNKTLEEADSS [W70T] | -1.06 ± 0.18
EDTPTSDDLEQFAKQFKQRRIFLGFTQADVGLALGTLYGNVFSQTTICRFEALQLSFKNMCKLKPLLNKWLEEADSS [K22F] | -0.096 ± 0.064
EDTPTSDDLEQFAKQFKQRRIKLGFTQADVGLALGTLYGNVFSQTTICRFEALQLSFKNMCKLKPLLNLWLEEADSS [K69L] | -0.144 ± 0.092
EDTPTSDDLEQFAKQFKQCRIKLGFTQADVGLALGTLYGNVFSQTTICRFEALQLSFKNMCKLKPLLNKWLEEADSS [R19C] | -0.162 ± 0.054
EDTPTSDDLEQFTKQFKQRRIKLGFTQADVGLALGTLYGNVFSQTTICRFEALQLSFKNMCKLKPLLNKWLEEADSS [A13T] | -0.255 ± 0.053
EDTPTSDDLEQFPKQFKQRRIKLGFTQADVGLALGTLYGNVFSQTTICRFEALQLSFKNMCKLKPLLNKWLEEADSS [A13P] | -0.731 ± 0.083
EDTPTSDDLEQFAKQFKQRRIKLGFTQFDVGLALGTLYGNVFSQTTICRFEALQLSFKNMCKLKPLLNKWLEEADSS [A28F] | -0.452 ± 0.1
EDTPTSDDLEQFAKQFKQRRIKLGFTQSDVGLALGTLYGNVFSQTTICRFEALQLSFKNMCKLKPLLNKWLEEADSS [A28S] | -0.086 ± 0.037
EDTPTSDDLEQFAKQFKQRRIKLGFTQADVGLALGTLYGNVFSQTFICRFEALQLSFKNMCKLKPLLNKWLEEADSS [T46F] | -0.325 ± 0.11
EDTPTSVDLEQFAKQFKQRRIKLGFTQADVGLALGTLYGNVFSQTTICRFEALQLSFKNMCKLKPLLNKWLEEADSS [D7V] | 0.021 ± 0.094
EDTPTSDDLEQFAKQFKQRRIKLGFTQADVGLALGTLYGNVFSQTTIQRFEALQLSFKNMCKLKPLLNKWLEEADSS [C48Q] | 0.134 ± 0.046
EDTPTSDDLEQFAKQFKQRRIKLGFTQADVGLALGTLYGNVFSQTTIERFEALQLSFKNMCKLKPLLNKWLEEADSS [C48E] | 0.085 ± 0.035

Variant | abundance fitness
EDTPTSDDLEQFAKQFKQRRIKLGFTQADVGLALGTLYGNVFSQTTINRFEALQLSFKNMCKLKPLLNKWLEEADSS [C48N] | -0.071 ± 0.11
EDTPTSDDLEQFAKQFKQRRIKLGFTQADMGLALGTLYGNVFSQTTICRFEALQLSFKNMCKLKPLLNKWLEEADSS [V30M] | -0.655 ± 0.12
EDTPTSDDLEQFAKQFKQRRIKLGFTQADVGLALGTLYGNVFSQTTICRFEALQLSFKNMCKLKPLLNKWLEEADSI [S77I] | -0.031 ± 0.077
EDTPTSDDLEQFAKQFKQRRIKLGFTQADVGLALGTLYGNVFPQTTICRFEALQLSFKNMCKLKPLLNKWLEEADSS [S43P] | -0.102 ± 0.041
EDTPTSDDLEQFAKQFKQRRIKLGFTQADVGLNLGTLYGNVFSQTTICRFEALQLSFKNMCKLKPLLNKWLEEADSS [A33N] | -0.477 ± 0.14
DDTPTSDDLEQFAKQFKQRRIKLGFTQADVGLALGTLYGNVFSQTTICRFEALQLSFKNMCKLKPLLNKWLEEADSS [E1D] | -0.014 ± 0.089
EDTPTSDDLEQFAKQFKQRRIKLGFTQADVGLALGTLYGNVFSQTTICRFEALQLSFKNMCKLKPILNKWLEEADSS [L66I] | -0.071 ± 0.063
EDTPTSDDLEQFAKQFKQRRIKLGFTQADVGLALGTLYGNVFSQTTICRFEALQLSFKNMCKLKPRLNKWLEEADSS [L66R] | -0.242 ± 0.029
EDTPTSDDLEQFAKQFKQRRIKLGFTEADVGLALGTLYGNVFSQTTICRFEALQLSFKNMCKLKPLLNKWLEEADSS [Q27E] | -0.004 ± 0.039
EDTPTSDDLEQFAKQFKQRRIKCGFTQADVGLALGTLYGNVFSQTTICRFEALQLSFKNMCKLKPLLNKWLEEADSS [L23C] | -0.313 ± 0.053
EDTPTSDDLEQFAKQFKQRRIKIGFTQADVGLALGTLYGNVFSQTTICRFEALQLSFKNMCKLKPLLNKWLEEADSS [L23I] | -0.565 ± 0.12
EDTPTSDDLEQFAKQFKQRRIKLGFTQADVGLALGTLYGNVFSQTTQCRFEALQLSFKNMCKLKPLLNKWLEEADSS [I47Q] | -0.723 ± 0.094
EDTPTSDDLEQFAKQFKQRRIKLGFTQAMVGLALGTLYGNVFSQTTICRFEALQLSFKNMCKLKPLLNKWLEEADSS [D29M] | -0.299 ± 0.048
EDCPTSDDLEQFAKQFKQRRIKLGFTQADVGLALGTLYGNVFSQTTICRFEALQLSFKNMCKLKPLLNKWLEEADSS [T3C] | 0.009 ± 0.06
EDTPTSDDLEQFAKQFKQRRIKLGFTQADVGLALGTLYGNVFSQTTICRFEALQLSEKNMCKLKPLLNKWLEEADSS [F57E] | -0.071 ± 0.034
EDTPTSDDLEQFAKQFKQRRIKLGFTQADVGLALGTLYGNVFSQTTICRFEALQLSNKNMCKLKPLLNKWLEEADSS [F57N] | 0.031 ± 0.063
EDTPTSDDLEQFAKQFKQRRIKLGFTQADVGLALGTLYGNVFSQTTICCFEALQLSFKNMCKLKPLLNKWLEEADSS [R49C] | -0.691 ± 0.1
EDTPTSDDLEQFAKQFKQRRIKLGFTQADVGLALGTLYGNVFSQTTICRFEALQLSFKNMCKLKPLLNKWLEEAMSS [D75M] | -0.022 ± 0.037
EDTPTSDDLEQFAKQFKQRRIKLGFTQADVGLALGTLYGNVFSQTTICRFEALQLSFKNMCKLKPLLNKWLEEARSS [D75R] | -0.058 ± 0.028
EDTPTSDDLEQFAKQFKQRRIKLGFTQADVGLALGTLYGNVFSQTTICRFEALQLSFKNMCKLKPLLNKWLEEALSS [D75L] | -0.133 ± 0.034
EDTPTSDDLECFAKQFKQRRIKLGFTQADVGLALGTLYGNVFSQTTICRFEALQLSFKNMCKLKPLLNKWLEEADSS [Q11C] | -0.141 ± 0.052
EDTPTSDDLEQFAKQFKQRRIKLGWTQADVGLALGTLYGNVFSQTTICRFEALQLSFKNMCKLKPLLNKWLEEADSS [F25W] | -0.149 ± 0.035
EDTPTSDDLEQFAKQFKQRRIKLGVTQADVGLALGTLYGNVFSQTTICRFEALQLSFKNMCKLKPLLNKWLEEADSS [F25V] | -0.216 ± 0.033
